Data from publication PMC3825789 (Nature biotechnology, 2013).

Target: insulin (Homo sapiens (species ), UniProt P01308)
Assay: ELISA

Sequence of insulin (P01308 whole entry, looked up): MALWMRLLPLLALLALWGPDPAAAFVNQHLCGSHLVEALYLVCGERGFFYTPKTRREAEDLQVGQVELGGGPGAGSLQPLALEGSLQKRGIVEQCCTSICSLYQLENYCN

Row | Binder | binding result
1 | ibalizumab L chain mutant LM52 (antibody, V domains shown) VH: QVQLQQSGPEVVKPGASVKMSCKASGYTFTSYVIHWVRQKPGQGLDWIGYINPYNDGTDYDEKFKGKATLTSDTSTSTAYMELSSLRSEDTAVYYCAREKDNYATGAWFAYWGQGTLVTVSS VL: DIVMTQSPDSLAVSLGERVTMNCKSSQSLLYSTNQKNYLAWYQQKPGQSPKLLIYWANSTESGVPDRFSGSGSGTDFTLTISSVQAEDVAVYYCQQYYSYRTFGGGTKLEIK | no binding
2 | ibalizumab (wild type) (antibody, V domains shown) VH: QVQLQQSGPEVVKPGASVKMSCKASGYTFTSYVIHWVRQKPGQGLDWIGYINPYNDGTDYDEKFKGKATLTSDTSTSTAYMELSSLRSEDTAVYYCAREKDNYATGAWFAYWGQGTLVTVSS VL: DIVMTQSPDSLAVSLGERVTMNCKSSQSLLYSTNQKNYLAWYQQKPGQSPKLLIYWASTRESGVPDRFSGSGSGTDFTLTISSVQAEDVAVYYCQQYYSYRTFGGGTKLEIK | no binding
